{
  "source": "paper PMC7969015",
  "about": "(Nucleic Acids Research, 2021)",
  "molecules": {"B1": {"name": "EcMnmE G domain (G216-G384) (domain or fragment, Escherichia coli, UniProt P25522 216-384, looked up)", "chain": "GMKVVIAGRPNAGKSSLLNALAGREAAIVTDIAGTTRDVLREHIHIDGMPLHIIDTAGLREASDEVERIGIERAWQEIEQADRVLFMVDGTTTDAVDPAEIWPEFIARLPAKLPITVVRNKADITGETLGMSEVNGHALIRLSARTGEGVDVLRNHLKQSMGFDTNMEG"}},
  "test_in_all_cases": "SEC",
  "key": {"[1]": {"biological_target": "hGTPBP3 G domain P257H (human)"}, "[2]": {"biological_target": "hGTPBP3 G domain ΔG312-V319 (human)"}, "[3]": {"biological_target": "hGTPBP3 G domain (G249-P426) (human)"}, "[4]": {"biological_target": "mature hGTPBP3 (hGTPBP3-ΔN20, T21-K492) (human)"}, "[5]": {"biological_target": "hGTPBP3 G domain A322P (human)"}, "[6]": {"biological_target": "ΔN-hGTPBP3 (N154-K492) (human)"}, "SEC": {"biological_target": "the molecule itself"}},
  "data": [
    {"molecule": "hGTPBP3 G domain P257H (domain or fragment)", "values": [
      {"measurement": "stoichiometry N", "setting": "[1]", "result": 2}
    ]},
    {"molecule": "hGTPBP3 G domain ΔG312-V319 (domain or fragment)", "values": [
      {"measurement": "stoichiometry N", "setting": "[2]", "result": 2}
    ]},
    {"molecule": "hGTPBP3 G domain (G249-P426) (domain or fragment)", "values": [
      {"measurement": "stoichiometry N", "setting": "[3]", "result": 2}
    ]},
    {"molecule": "mature hGTPBP3 (hGTPBP3-ΔN20, T21-K492) (enzyme)", "values": [
      {"measurement": "stoichiometry N", "setting": "[4]", "result": 2}
    ]},
    {"molecule": "hGTPBP3 G domain A322P (domain or fragment)", "values": [
      {"measurement": "stoichiometry N", "setting": "[5]", "result": 2}
    ]},
    {"molecule": "ΔN-hGTPBP3 (N154-K492) (domain or fragment)", "values": [
      {"measurement": "stoichiometry N", "setting": "[6]", "result": 2}
    ]},
    {"molecule": "B1", "values": [
      {"measurement": "stoichiometry N", "setting": "SEC", "result": 2}
    ]}
  ]
}
